In US20030044888, “NOVEL STEROID-ACTIVATED NUCLEAR RECEPTORS AND USES THEREFOR” (published 2003):

Target: SXR/RXR heterodimer (Homo sapiens, UniProt O75469;P19793 O75469:1-434,P19793:1-462)
Experiment: EMSA; mutations prevented heterodimer binding; 10 mM Tris pH 8, 100 mM KCl, poly dI:dC, room temp
Settings: tags: TNT (Promega); SXR initiator Leu changed to Met
Protocol: Electrophoretic mobility shift assays were performed using in vitro transcribed, translated proteins (TNT, Promega ). Proteins (1 μl each) were incubated for 20 minutes at room temperature with 100,000 cpm of Klenow-labeled probes in 10 mM Tris pH 8, 100 mM KCl, 6% glycerol, 0.05% NP-40, 1 mM dithiothreitol (DTT), 100 ng/μl poly dI:dC (Pharmacia, Piscataway, N.J.) and then electrophoresed through a 5% polyacrylamide gel in 0.5× TBE (45 mM Tris-base, 45 mM boric acid, 1 mM ethylenediaminetetraacetic acid (EDTA) at room temperature. For competition binding, protein plus unlabeled oligonucleotides at five or fifty fold molar excess were preincubated for ten minutes on ice, then labeled probes were added and incubated for 20 minutes at room temperature. Electrophoresis was as above. The IR series oligonucleotides tested had the following sequences: […]

SXR/RXR heterodimer, sequence (O75469 whole entry, chain 1 of 2): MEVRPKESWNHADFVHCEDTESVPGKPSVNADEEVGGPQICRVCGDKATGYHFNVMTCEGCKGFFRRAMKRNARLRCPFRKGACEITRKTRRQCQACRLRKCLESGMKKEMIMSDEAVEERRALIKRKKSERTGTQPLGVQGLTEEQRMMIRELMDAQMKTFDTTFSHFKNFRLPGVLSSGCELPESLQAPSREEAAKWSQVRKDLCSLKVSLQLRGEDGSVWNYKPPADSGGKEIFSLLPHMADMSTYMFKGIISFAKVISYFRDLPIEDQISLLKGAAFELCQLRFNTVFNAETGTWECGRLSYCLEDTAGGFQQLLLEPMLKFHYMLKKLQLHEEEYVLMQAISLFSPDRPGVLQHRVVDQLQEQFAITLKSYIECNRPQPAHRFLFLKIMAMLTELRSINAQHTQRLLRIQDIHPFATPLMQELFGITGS
SXR/RXR heterodimer, sequence (P19793 whole entry, chain 2 of 2): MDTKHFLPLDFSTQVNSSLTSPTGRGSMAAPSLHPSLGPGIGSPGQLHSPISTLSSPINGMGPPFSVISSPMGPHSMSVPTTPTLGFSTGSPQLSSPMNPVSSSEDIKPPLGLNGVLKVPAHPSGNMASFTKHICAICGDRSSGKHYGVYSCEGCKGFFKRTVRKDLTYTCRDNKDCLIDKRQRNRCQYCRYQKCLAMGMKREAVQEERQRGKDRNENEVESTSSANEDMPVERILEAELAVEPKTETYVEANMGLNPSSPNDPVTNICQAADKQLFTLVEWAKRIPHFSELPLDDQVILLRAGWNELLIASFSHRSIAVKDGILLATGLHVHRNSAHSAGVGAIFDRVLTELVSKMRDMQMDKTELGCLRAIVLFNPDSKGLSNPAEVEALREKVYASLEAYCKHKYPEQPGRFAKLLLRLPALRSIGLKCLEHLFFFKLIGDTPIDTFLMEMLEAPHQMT

B1: IR-M (dsDNA)
DNA 1: AGCTTACGTCATGACGTA
DNA 2: TACGTCATGACGTAAGCT
Question: Does B1 bind?
Answer: no binding
